# Results: the RNAGym collection of RNA variant scans (doi:10.1073/pnas.2313332121)
# B1: TPR t1 (parent)
# chain: GACCAAUCUGCCCUCAGAGCUCGAGAACAUCUUCGGAUGCAGAGGAGGCAGGCUUCGGUGGCGCGAUAGCGCCAACGUCCUCAACCUCCAAUGCAUCCCACCACAUGAUGAUGCCUGAAGAGCCUUGGUUUUUUG
# Variants of: B1
# Experiment: polymerase ribozyme fitness, log enrichment relative to wild type (log ratio); higher = more active; in vitro selection for triplet polymerase activity
# In short: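 One round of in vitro selection, in triplicate, was applied to PCR-built, transcribed mutant libraries of each subunit of a heterodimeric triplet polymerase ribozyme. The steps were annealing with a biotinylated primer, partner subunit and triplets, incubation frozen at −7 °C, gel excision of extended constructs, streptavidin-bead capture and RT-PCR. Fitness is the logarithm, base 2, of genotype enrichment over wild-type enrichment from inverse-variance-weighted replicate averages of Illumina-sequenced inputs and outputs, keeping genotypes with ≥10 input reads and ≥1 read per output.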
row,Variant,polymerase ribozyme fitness (log ratio)
1,C8U U38G C72A U92A C115G,-5.69
2,C70G C82A G113C,-6.03
3,G10A C64U A103U C123U,-3.16
4,C8G C49A U54C G122U,0.439
5,A41G G110U,-1.97
6,U55C C64U,-0.472
7,C8G C11U C22G C72U,-3.41
8,C12U G57A G63A G113C,-5.3
9,C11U C34U C86G C102U A121U,-1.28
10,G39A G71C G93C C94U,-2.14
11,C70G U78C G113A A121G,-2.79
12,A6U C56U C97A,-6.51
13,C40G C64U C85A U112C,-0.298
14,G39U C62U C85A A90G A119U C123G U125G,-1.09
15,C56A C82A C97U U129G,-2.1
16,U7A G122A,-0.674
17,C53A U55A C82U,-0.263
18,A6U C94G G120A,0.554
19,G42C C72U,-1.39
20,C4G C20U C94U A111U,-5.59
21,G19U G71A U78A,-4.64
22,A50G C76G,-0.226
23,C8A U14G G61U C123A U131A G135U,1.21
24,A83G A118U,0.587

row,Variant,polymerase ribozyme fitness (log ratio)
1,G77U A103C,-4.83
2,G51A G52A G61U C101U,-3.85
3,U9G C40U U54A C85A,-1.24
4,G58A G117A G120A U132C,-3.08
5,G10U C12A C56A C72A C82A,-1.27
6,C15A A46U G77U,-2.81
7,A29U C62A U112C G127C,-3.28
8,C15U C53U G69U,-0.102
9,C3U U55G,-0.611
10,C114A A119G C124G,0.223
11,C72A U81C U109A G110U U112G A121U U125A,-6.45
12,C114A C123U G128U,-4.41
13,G61A C97G G110A,-5.81
14,G60U G71U,-1.98
15,G51A G61C,-3.7
16,A50U C62U U133G,-1.1
17,G63A C98G G117C G128A U133C,-5.29
18,C12A C88G G128U U129A,-4.77
19,U7A C80U C99U C124G,-2.39
20,A43U U129A,-2.81
21,G71A,-0.673
22,A50C C94U C123U,1.49
23,A100U G110A,-1.52
24,G77U C114G C124G,-1.15

row,Variant,polymerase ribozyme fitness (log ratio)
1,U55A C73U C85A C115G,-3.38
2,G60A U129A,-0.603
3,C79U U87A,0.23
4,C31A A50G U55G G107A C124U,-3.71
5,U59G C80A A121C,-0.276
6,C70U U106A U109G,-4.62
7,U116G G120U,-2.52
8,A95C C123G,-0.428
9,G48C C56G G71A C97A C104U U112G,-6.76
10,A29C A74U,-2.93
11,G39C G45U G61A U112C,0.603
12,G77A C80A G120U,-2.54
13,C104G A119G,-6.88
14,C8G A37U A90U G93C U132A,-2.23
15,U7A C40U U54A C56A C73A G77U G117A G122A,-3.15
16,G61U A100C U133G,-1.29
17,A41U U92C,-1.21
18,G35U G113C G120A G135C,-5.82
19,C72A G122A,-0.72
20,A5G G35A U78A C101U,-3.77
21,C8A G60U C104G C124U,-5.09
22,A41G G71U A91U,-2.66
23,G44A,-0.794
24,U55G C104U G113C C123A,-3.72

row,Variant,polymerase ribozyme fitness (log ratio)
1,G10A G17U A18U C115U C123G U130A,-4.27
2,C64G G65U C79G C104A C115A C123G,-6.93
3,G17A U96C,-3.36
4,A41G G69U A74U U81A,-1.11
5,G69A U81C,-2.71
6,U67A C73U C94A C104U G117U,-6.08
7,C80A G93A,-3.95
8,C8G A18C C40U C72A C123G,0.381
9,A37C G42A A43U C49U C53G U55C,-4.27
10,C8A G42A G60U A121C,-0.202
11,G57C G61A,-1.82
12,A37C U96G,0.787
13,A46C C53U U112A,0.835
14,C22G U106A,-2.37
15,C53G C94A U132A,-1.31
16,G47C G113A,-2.47
17,U7A U9G C73U C79G A84G U96C,-2.27
18,C40U A90G C123U,1.26
19,C70U U87A C97U U112A C115U G127A,-4.04
20,C34G A50G C70G A74U A83C G110U U112G G120C,-6.67
21,A6U G48U C64U U81G,-4.27
22,A46C C64A,-5.98
23,C12U C104G,-4.58
24,C4U A26G C28U C40A C64A C123U,-6.51

row,Variant,polymerase ribozyme fitness (log ratio)
1,A16U C70A A74U,-4.08
2,U78C C97U A103U C123G,-4.59
3,C22G G61C,-3.76
4,G93C G127C,-1.82
5,G48C C70U C85U G107U,-6.63
6,C70G C124A,-1.21
7,G47U U112A,0.352
8,C13A G17A C62A G120A,-5.55
9,C13A G39C,-2
10,C4U C70A A121C U131A,-0.259
11,A37C G45C G71C U130G U131C G135U,-3.26
12,C102A A111G C115A A118U,-4.83
13,G17A G39A C79U G110C,-7.24
14,A27U A37C U59C,-3.36
15,A6U C34G C123U,-5.18
16,G113A C124G,-0.302
17,U38G C124U,0.564
18,G19U G60A C79U G120C,-2.44
19,A43U U54A U112A,-0.639
20,C56U G60A,-3.37
21,G48A C79U U92G U116C G120C,-5.27
22,G47U G71C,-2.44
23,G60U C97A C123U,-2.62
24,A2G G36A C49G A84C C123A U126G,-2.7

row,Variant,polymerase ribozyme fitness (log ratio)
1,A5U G60U U116C,-1.69
2,G61A U130G,-0.92
3,A6G G58A U59C,-1.72
4,C4U C11A C76U C82G G110U,-5.02
5,G63U C94G A121U,0.0576
6,C40U G42A G122U C123A,-1.77
7,U96C C123A,1.12
8,C8U C15A A118U A121C,0.853
9,C28A C73A C94A A119U,-5.2
10,A18C A74C A84C C115U,-1.56
11,G60U C85A C101U,-0.366
12,A46U C70A G120U,-1.59
13,G39C C53G G107C A121U,-4.92
14,C12A C22G G36U U116C G120U,-3.27
15,C11A C56A A66G C85A U112A,-4.09
16,C20U C73A A95U U106A G122A,-4.57
17,C72U C82U,-0.823
18,G10A C40A A50U U78A,-4.41
19,C13U C73G C82U,-1.5
20,C15G,-2.16
21,C8A A74U C104A C124G,-0.357
22,C72G U109G U125G,-4.97
23,A6G A24G C73A,-1.35
24,G19A G42U G45C A50U,-4.81

row,Variant,polymerase ribozyme fitness (log ratio)
1,A18U A83U G120A,-2.42
2,U54G G71U A75C C98U U125C,-4.29
3,G71C A111U,-4.31
4,G19A G52A G113A G127A,-2.38
5,C3U C123U,0.881
6,A41C U55G U59C G93C,-2.33
7,C20A C56A C82U,-3.22
8,G61A C101A,-0.787
9,C3G G128U,-1.24
10,A91U C104A,-4.59
11,G36U G42C,-2.93
12,C62A C86A C98U,-3.12
13,A43G C53G G69C,-2.9
14,C4A U78A G93C C115A,-2.87
15,C11U G61A A105G U106A,-0.0724
16,C98A C123A,-3.79
17,C70A C114G,-4.93
18,C40U A74C G77U C94U C114G,-2.59
19,A46U C72G A83G G117A U133G,-3.93
20,C28U G63U,-3.07
21,C8G G58A G93U C101U A121C,0.327
22,C70G A111U G117U A121U,-6.12
23,A2G C40G G45U G52A C124G,-2.61
